Target: archaeal KEOPS complex (pfuPcc1, mjKae1, mjBud32, mjCgi121) (Pyrococcus furiosus | Methanococcus jannaschii) (UniProt Q8TZI1)
Experiment: SEC-MALS

archaeal KEOPS complex (pfuPcc1, mjKae1, mjBud32, mjCgi121) (from UniProt Q8TZI1 1-82; Q58530 1-328; Q58530 1-535; Q57646 1-145)
stoichiometry N: 2

Reference: publication PMC5001605
